Experiments:
[1] = pH 10
Source text: Brief descriptions of each property and the characterization of each property are stated below. • a) Hydrophilicity. Hydrophilicity relates to the strength of being dissolved in or absorbed in aqueous solutions. It denotes a preference for liquids, solutions, or surfaces with a high dipole moment, like water. Lipophilicity denotes a preference for liquids, solutions, or surfaces with a low dipole moment, such as lipid solutions. The more polar the HetSiFA, the less masking of the lipophilicity may be needed in the radiopharmaceutical via introducing cumbersome and lengthy linkers. The hydrophilicity of HetSiFAs is assessed by calculating and/or measuring the octanol/water partition coefficient log P. Log D measures the lipophilicity of ionizable compounds, where the partition is a function of the pH. The reversed-phase HPLC retention times tR can be used to qualitatively compare the polarity of HetSiFAs. • b) Hydrolytic stability. […] At different time points, the substrate is quantified by HPLC UV monitoring. […] The hydrolysis is monitored by HPLC (˜7 timepoints). […] In addition, the stability of compounds can be assessed in rat and human plasma and in microsomes. • c) Radiolabeling. […] The radiolabeling properties of synthesized HetSiFAs can be assessed using low amounts of radioactivity. […]

[2] = stability in solution / on storage (observations); type: physicochemical; conditions: prolonged storage
[3] = ex vivo biodistribution in healthy mice; conditions: for bone uptake: ex vivo biodistribution, 3 healthy Balb/c female mice, indicates Si-18F bond stability in vivo
[4] = FIG. 26
Source text: Table printed on a drawing sheet, FIG. 26
The patent's description of the figure: FIG. 26 illustrates HSA binding assay results of HetSiFA compounds in accordance with an embodiment of the invention.
FIG. 26 illustrates human serum albumin (HSA) binding assay results of HetSiFA compounds in accordance with an embodiment. A standard curve can be first established using reference compounds (See, e.g., Valko, K. et al., J. Pharm. Sci. 2003, 92 (11), 2236-2248; Wurzer, A. J. et al., PSMA binding dual mode radiotracer and therapeutic. 2020, WO2020157177A1; the disclosures of which are herein incorporated by reference.) The HSA binding assay results include four HetSiFA theranostic compounds, FTX-164, FTX-165, FTX-168, and FTX-181 (structures shown in FIG. 26), and two therapeutics Lutathera and Lu-NeoB. […] Test condition of the HSA binding assay includes: Column: Chiralpak HSA (100×2.1 mm, 5 μm, Cat. No. HSA5LM-C0004), flow rate: 0.3 mL/min. Mobile phase: A—NH40Ac buffer (50 mM, pH=7), freshly prepared each day; B—isopropanol (HPLC grade); 0-3 min: isocratic 100% A, 0% B; 3-40 min: gradient to 80% A, 20% B; 40-60 min: isocratic 80% A, 20% B. Samples: 9 reference compounds, concentration 0.5 mg/mL in i-PrOH/NH4OAc (50 mM) pH=7, 50:50. […]
First reader's note: HSA % is human serum albumin binding; the structures of the compounds are drawn beside the table on the same sheet.

Molecule | hydrolytic stability compared to phenyl-SiFA [1] | bone uptake [3] | further results
COc1ccncc1[Si](F)(C(C)(C)C)C(C)(C)C [3-(Di-tert-butylfluorosilyl)-4-methoxypyridine] | slightly lower hydrolytic stability than phenyl-SiFA | – | –
COc1ncccc1[Si](F)(C(C)(C)C)C(C)(C)C [5-(Di-tert-butylfluorosilyl)-6-methoxypyridine] | higher hydrolytic stability than phenyl-SiFA | – | –
CC(C)(C)OC(=O)NCCOCCn1nc(NCC(=O)O)cc1[Si](F)(C(C)(C)C)C(C)(C)C [PPI-24068, (1-(2-(2-((tert-butoxycarbonyl)amino)ethoxy)ethyl)-5-(di-tert-butylfluorosilyl)-1H-pyrazol-3-yl)glycine] | – | – | stability on storage and in basic medium [2]: some instability
Lu-DOTAGA-^18F-Pyrazole-HetSiFA-PEG12-TATE [^18F-FTX-181] | – | less bone uptake | accumulation in the liver ([3]; healthy Balb/c female mice): low; washout from non-targeted organs ([3]; healthy Balb/c female mice): washes out from non-targeted organs except for the gallbladder
^18F-Pyrazole-HetSiFA-Lu-DOTAGA-TATE [^18F-FTX-165] | – | Little bone uptake | –
^18F-Pyridine-HetSiFA-Lu-DOTAGA-TATE [FTX-164] | – | – | HSA % [4]: 97.78%
